Measured values reported in patent US20020031818A1, “Modification of Mdm2 activity” (priority 2000, published 2002).

Legend:
[1] = system: Mdm2; experiment: In vivo ubiquitination of Mdm2 in EJ cells (HA-Ub, Mdm2 immunoprecipitation); type: cell-based, mouse; conditions: forced expression in EJ p19 null cells
Source text: FIG. 14A-14E. A. In vitro ubiquitination of Mdm2 is inhibited by p19^ARF. GST-Mdm2 was subjected to an in vitro ubiquitination reaction using purified forms of E1, E2 and Ub-HA in the presence of ATP. Addition of bacculovirus-purified p19^ARF at the indicated concentrations blocked Mdm2 ubiquitination. Glutathione bead-coupled GST-Mdm2 in its ubiquitinated or non-ubiquitinated forms was washed and analyzed on immunoblots using antibodies to HA (upper panel). Middle panel depicts the level of Mdm2 expression and the lower panel, the level of p19^ARF added to the reaction. B. p19^ARF expression increases Mdm2 self-ubiquitination in EJ cells. EJ cells were transfected with the indicated plasmids. Cells were harvested 36 h later and proteins ([…]) were immunoprecipitated using Mdm2 antibodies (2A10). Immunoprecipitated material was washed and proteins loaded onto 10% SDS-PAGE, followed by immunoblot analysis with HA-antibodies to detect covalent HA-ubiquitin conjugation to Mdm2 (upper panel). Middle panel depicts level of immunoprecipitated Mdm2. Lower panel represents western analysis of p19^ARF expression levels. C. In vitro ubiquitination of Mdm2 in the presence of p19^ARF and protein extracts. […] The level of p53 immunoprecipitated was monitored in immunoblots using polyclonal antibodies to p53 (middle). […]

[2] = system: Mdm2; experiment: Pulse-chase half-life of Mdm2 wt or S218A in normal human fibroblasts; type: cell-based
Protocol: FIG. 16A-16F. A. Activation of p38 increases Mdm2 ubiquitination in vivo. EJ cells were transfected with indicated plasmids. 36 h after transfection cells were harvested and Mdm2 was immunoprecipitated (2A10 antibodies). […] Middle panels show expression levels of Mdm2 and p19^ARF. Lower panels depict phospho-and total p38 levels. B. Mutation at Ser218 of Mdm2 abolishes p38 induced Mdm2 ubiquitination. Normal human fibroblasts were transfected with indicated plasmids. 36 h after transfection cells were harvested and lysed. Mdm2 was immunoprecipitated and proteins were separated on a 8% SDS-PAGE. […] C. Mutation at Ser218 of Mdm2 abrogates p19^ARF-induced Mdm2 degradation. […] Upper panels depict Mdm2-Sumo conjugates (detected via Sumo-1 anitbodies), as well as the 75 kD and 90 kD forms of Mdm2 (detected via Mdm2 antibodies). […] To monitor possible changes in amount of p19 bound to Mdm2 association was monitored using normalized Mdm2 levels at the indicated time-points after UV-treatment.
Normal human fibroblasts (NHF) were transfected with wt or S218A forms of Mdm2 expression vectors (4 μg). ^35S-methionine (1 mCi) was added to the cell cultures 24 h after transfection for 5 h (pulse) followed by chase (2 mM cold methionine) for the indicated time points. […] Immunoprecipated Mdm2 was washed, separated on 10% SDS-PAGE, and analyzed by autoradiography.

B1: p19^ARF: Mdm2-regulating protein; in vitro translated, bacculovirus-expressed or transfected (protein)
chain: MGRRFLVTVRIQRAGRPLQERVFLVKFVRSRRPRTASCALAFVNMLLRLERILRRGPHRNPGPGDDDGQRSRSSSSAQLRCRFELRGPHYLLPPGARRSAGRLPGHAGGAARVRGSAGCARCLGSPAARLGPRAGTSRHRAIFAFRWVLFVFRWVVFVYRWERRPDRRA
degree of Mdm2 ubiquitination in vivo [1]: noticeable increase in the degree of Mdm2 ubiquitination
effect on half-life of Mdm2 S218A mutant [2]: minimal effects
